Source: the DeepSol protein solubility set

Test: soluble on expression in E. coli; label from the status in PepcDB or PDB records

Row | Sequence | soluble on expression in E. coli
1 | MGSDKIHHHHHHMNQAMDTKQIAPFTLALPEGEALPLVCDSPHSGTFYPADFGAVVAPERLRGGEDTHVDALWEAVPRVGGTLLAATFPRVYIDPNRMLDDIDPAQLEGPWPTPLAPGEKTRLGYGLIWSNVDAATPIYDRKLTVAEVQRRINRYYRPYHAALTEAVEGAYQRFGAVWHLNLHSMPNNAYERLKIQSPRPLADFVLGDRDGTTCEPGLVDLVERELREKGYTVARNDPYKGVQLIAQIGRPAERRNSLQIEIRRPLYMEEGTRERNEGFATLQRDLTLLTLRIAEYVRRGV | not soluble
2 | MGSDKIHHHHHHMNQDGASPLSETAQPFLQVVGVHKRFTGVHALRGVSLTFERGQIYHLLGENGCGKSTLIKIISGAQPPDQGELVIEGVRHAQLSPLESLAAGIETVYQDLSLLPNMSVAENVALTAELAAHAGKLARTFDRRALARTAARALEAVGLPGSADFQATLIEQLPLATRQLVAIARAIASEAKFVIMDEPTTSLTQKEVDNLIAVLANLRAHGVTVLFVSHKLDECYAIGGEVIVLRDGQKMAQGPIAQFTKARLSELMTGRELSNERYREAGHAQDVVLELRGLTRAGQFSDVSLSLHGGEILGVTGLLDSGRNELARALAGVAPAHAGEVLLDGHAIALRTPSDAKRNRIGYVPEDRLNEGLFLDKPIRDNLITAMISSLRDRFGQIDRARAQALAQQTVKELQIATAGIDKPVQSLSGGNQQRVLIGRWLAIDPRVLILHGPTVGVDVGSRDVIYRIMQRLSQRGIGIILISDDLPELLQNCDRILMMKKGRVASEYRADALDEADLYHALLSEAA | not soluble
3 | MGSDKIHHHHHHMNQDLLHKYFKGETSVDEEKRILNWVDESEENRKTLQKERMLFDIALFTDSKRKMREKAGAGARIIPMLRWSARIAAAVIVAVSCGFLINEYQYDKLAQLQTVTVPAGQRAQITLADGTKVWLNSESTLSYRSDFGRRDRDVELDGEAYFEVAKNKEIPFYVNTETNQVRVVGTHFNVCAYKGSNEFETTLVEGIVDIYAYDNERPLTRLTKNEFFGSYQGKYKKAVLPSYDYLRWREGLYCFDDSPFSCILTKLEKYYNVKITVENPKVLNYRCTGKFKEQDGVEHILKVIQKDHPFTYSISEEGDSIRIE | not soluble
4 | MGSDKIHHHHHHMNREVFITCAVTGSGGSQDRSPHVPRSPKQIADSAIDAAKAGAAIVHCHVRDPETGKPRRDVHLYREVTERIRDANVDVVLNLTAGMGGDMVFGSPEAPLPLNEKGTDMGGATNRMEHVRQCLPEICTLDCGTMNFAEADYVMTNTPGMLRAMGGMMTALGVKPEIEAFDTGHLWFAKQLVEEKVLNPDALVQLCMGVPWGAPDDLNTFMAMVNNVPSTWNWSAFAIGRNQMAYAAAAVLAGGNVRVGLEDNLWLDKGVLATNAQLVERAASIVTNLGARILGPEEVRKKLNLTKRAPIAAAA | not soluble
5 | MGSDKIHHHHHHMNREVVIVGGGPAGMLMGLLLAKEKIQVTVLEKNTTFNRDFRGETIAPGSVFLLKKLGVFKALEEHGFIKVQKIKMYDREEKLFSVNFDDFNHPQKFGIDIPQPVVLEALKQKASSYPNFEYIHGATCTDLIKDGEKVVGIRYSKEKEEHQIKCRLVIGAEGRFSRLRTLGHFAVEKKEFSRDLIWFKVPKPEGWEEGNLIKVYKHDHVIILPTYPNDLRVGTYIYLGGNRETKAKGIAAFIDKVCMIEPRLRKPMEKHIKSWDDTTLLKIFTAHVDQWAKDGLILIGDAAHTLSPILGQGVNIAMQDAFELLPYVNSGLKTYEGPLPAHHFDDYISKRKKQVSFVAGFQERQEQNLAASTPFQCMLRKVKMKLLDKAPFKIKVMKKLQYGVVANETTEGLT | not soluble
6 | MGSDKIHHHHHHMNRGCFDIAVITDREAFQAILDEWNQLADINGYYTPWFCWEWFDLCLRHGETRALHILMVRSGGSLVAVAPFTVRSERYKGVVPARILSSIGGNRSPLKGIVFGDADENMQREVTTLVLEYLRTTFKNWDILELEPVAGSNDGNSIETLIERQGLSFRSYISCANRYCDVADASFDGFFERLPQSTRKDINYCRRRLEKNGSLVFQIITDAASLDQCLDVYDAVRAKSWKAAEKDREFNRELMHVAAGKGWLRLGILSYDGTPIAVQKWIVANGRAYIYDVLYDEEYKKHSPGKILTSMMFQHAIDNERVAYVDYLRGDEPYKEEWTPSLRNRIGIEAYNKSVLGCTASILMKKILPLVKKNTDSTNAHK | not soluble
